Residue numbers refer to the chain shown, from its start. Names and notes keep the numbering of the source.
T1: ATP phosphoribosyltransferase (HisG) (Corynebacterium glutamicum, UniProt Q9Z472)
T1 construct: made in house; host or cells: Corynebacterium glutamicum ATCC 13032 (wild type) and HCJ-96, -161, -162, -163, -164, -165 (chromosomal hisG alleles); unpurified supernatant of sonicated cells
T1 sequence (Q9Z472 whole entry, looked up): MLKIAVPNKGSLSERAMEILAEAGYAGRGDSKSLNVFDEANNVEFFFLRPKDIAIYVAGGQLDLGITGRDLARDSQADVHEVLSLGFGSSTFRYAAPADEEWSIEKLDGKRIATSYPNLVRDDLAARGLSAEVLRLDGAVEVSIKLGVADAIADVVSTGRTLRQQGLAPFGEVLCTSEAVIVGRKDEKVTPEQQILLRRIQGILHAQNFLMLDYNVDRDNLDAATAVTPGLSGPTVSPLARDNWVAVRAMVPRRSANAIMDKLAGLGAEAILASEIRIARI

B1: HisG (N215R/G233H/T235Q): ATP phosphoribosyltransferase variant N215R/G233H/T235Q, SEQ ID NO: 1 (protein)
chain: T1 sequence (Q9Z472 whole entry, looked up) with N215R, G233H, T235Q
modifications: HisG
B2: HisG (N215K/G233H/T235Q): ATP phosphoribosyltransferase variant N215K/G233H/T235Q (protein)
chain: T1 sequence (Q9Z472 whole entry, looked up) with N215K, G233H, T235Q
B3: HisG (N215R/L231F/T235A): ATP phosphoribosyltransferase variant N215R/L231F/T235A (protein)
chain: T1 sequence (Q9Z472 whole entry, looked up) with N215R, L231F, T235A
B4: HisG (N215R): ATP phosphoribosyltransferase variant with N215R substitution (protein)
chain: T1 sequence (Q9Z472 whole entry, looked up) with N215R
B5: HisG: wild-type Corynebacterium glutamicum ATP phosphoribosyltransferase, SEQ ID NO: 13 (protein)
chain: T1 sequence (Q9Z472 whole entry, looked up)
modifications: HisG
B6: HisG (N215K/L231F/T235A): known HisG variant N215K/L231F/T235A (Biochimie. 2012 March; 94(3):829-38) (protein)
chain: T1 sequence (Q9Z472 whole entry, looked up) with N215K, L231F, T235A
B7: HisG (G233H/T235Q): ATP phosphoribosyltransferase variant with G233H and T235Q substitutions (protein)
chain: T1 sequence (Q9Z472 whole entry, looked up) with G233H, T235Q

Columns and labels:
[1] = test system: ATP phosphoribosyltransferase (HisG); experiment: Measurement of activities of ATP phosphoribosyltransferases (UV 290 nm, cell supernatant); type: biochemical, Corynebacterium glutamicum; conditions: for Activity of ATP phosphoribosyltransferase (HisG): 30° C., UV 290 nm, no L-histidine
Method: Corynebacterium glutamicum ATCC 13032 and the strains HCJ-96, HCJ-161, HCJ-162, HCJ-163, HCJ-164, and HCJ-165 selected in Example 3 were each inoculated into a corner-baffle flask (250 mL) containing a seed medium (25 mL), and were cultured at 30° C. for 20 hours with shaking at 200 rpm to obtain a seed culture solution. Thereafter, the seed culture solution (1 mL) was inoculated into a corner-baffle flask (250 mL) containing a production medium (24 mL), and was cultured at 30° C. for 45 hours at 200 rpm. After the culture, the obtained cells were sonicated and centrifuged, and the supernatant obtained therefrom was used for evaluation of the activity of ATP phosphoribosyltransferase.
The activities of the ATP phosphoribosyltransferase variants obtained in Example 4-1 and that of a wild-type ATP phosphoribosyltransferase variant were measured. The evaluation of the activities of these enzymes was performed with reference to the conditions described in an existing literature report (Biochimie. 2012 March; 94(3):829-38.).
For the evaluation of the activities of the enzymes, the supernatant was quantified to give the same concentration. These enzymes were used as sample enzymes, and the reaction conditions were as follows: the reaction compositions were mixed to the quantified protein (0.05 mg) to give a total amount of 500 μL, and then measured at 30° C. at a UV wavelength of 290 nm for 90 seconds. With regard to the wild-type ATP phosphoribosyltransferase having low activity, the supernatant protein (0.3 mg) was used and measured at a UV wavelength of 290 nm for 30 minutes for the activity evaluation. The composition of the reaction solution for measuring the activities of the enzymes is as follows: […]

[2] = target: T2, ATP phosphoribosyltransferase (HisG) (Corynebacterium glutamicum, UniProt Q9Z472, G233H/N215R/T235Q); experiment: Degree of inhibition by L-histidine on activities of ATP phosphoribosyltransferase variants; type: biochemical; conditions: L-histidine 100 mM
T2 construct: made in house; host or cells: Corynebacterium glutamicum ATCC 13032 (wild type) and HCJ-96, -161, -162, -163, -164, -165 (chromosomal hisG alleles); unpurified supernatant of sonicated cells
T2 sequence (Q9Z472 whole entry N215R/G233H/T235Q): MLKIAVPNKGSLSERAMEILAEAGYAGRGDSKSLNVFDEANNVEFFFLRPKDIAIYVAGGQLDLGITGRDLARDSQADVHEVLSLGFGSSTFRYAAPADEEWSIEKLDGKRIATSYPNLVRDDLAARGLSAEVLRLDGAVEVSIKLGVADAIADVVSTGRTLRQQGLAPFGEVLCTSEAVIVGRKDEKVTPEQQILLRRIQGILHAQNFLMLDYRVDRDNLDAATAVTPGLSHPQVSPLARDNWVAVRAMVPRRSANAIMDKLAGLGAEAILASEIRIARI
Method: (§1) For the evaluation of the activities of the enzymes, the supernatant was quantified to give the same concentration. These enzymes were used as sample enzymes, and the reaction conditions were as follows: the reaction compositions were mixed to the quantified protein (0.05 mg) to give a total amount of 500 μL, and then measured at 30° C. at a UV wavelength of 290 nm for 90 seconds. With regard to the wild-type ATP phosphoribosyltransferase having low activity, the supernatant protein (0.3 mg) was used and measured at a UV wavelength of 290 nm for 30 minutes for the activity evaluation. The composition of the reaction solution for measuring the activities of the enzymes is as follows:
(§2) The degree of inhibition by L-histidine on the activities of ATP phosphoribosyltransferase and the ATP phosphoribosyltransferase variants obtained in Example 4-1 was measured. Specifically, the activities of these enzymes were measured in the reaction composition solution of Example 4-2, which contained L-histidine (0 mM, 50 mM, or 100 mM), using the method described in Example 4-2. […] However, the activities of the ATP phosphoribosyltransferase variants were less inhibited by L-histidine.

[3] = test system: ATP phosphoribosyltransferase (HisG); experiment: as above; type: biochemical, Corynebacterium glutamicum; conditions: for Activity of Enzyme, 0 mM L-histidine: L-histidine 0 mM; for Activity of Enzyme, 50 mM L-histidine: L-histidine 50 mM; for Activity of Enzyme, 100 mM L-histidine: L-histidine 100 mM
Method: as §1, §2

[4] = target: T1, ATP phosphoribosyltransferase (HisG); experiment: as above; type: biochemical; conditions: L-histidine 50 mM and 100 mM
Method: as §1, §2

| Molecule | Activity of ATP phosphoribosyltransferase (HisG) [1] [U/mg] | activity fold higher than that of the wild-type enzyme ([1]; relative to wild-type enzyme) | activity in composition solution containing L-histidine (in words) [2] | Activity of Enzyme, 0 mM L-histidine [3] [U/mg] | Activity of Enzyme, 50 mM L-histidine [3] [U/mg] | Activity of Enzyme, 100 mM L-histidine [3] [U/mg] | inhibition of enzyme activity by L-histidine (in words) [4] |
| --- | --- | --- | --- | --- | --- | --- | --- |
| B1 | 2.082 | about 160 fold | showed the highest activity | 2.082 | 1.435 | 1.335 | – |
| B2 | 1.3 | – | – | 1.3 | 0.679 | 0.413 | – |
| B3 | 0.408 | – | – | 0.408 | 0.157 | 0 | – |
| B4 | 0.021 | – | – | 0.021 | 0 | 0 | – |
| B5 | 0.013 | – | – | 0.013 | 0 | 0 | completely inhibited |
| B6 | 0.387 | – | – | 0.387 | 0.202 | 0.023 | – |
| B7 | 1.381 | – | – | 1.381 | 0.64 | 0.542 | – |

— patent US11098333B2, “ATP phosphoribosyltransferase variant and method for producing L-histidine using the same” (priority 2017, dated 2021)
